Key:
[1] = system: aldehyde reductase from Corynebacterium sp.; settings: phenylacetaldehyde = 100%; cited from earlier work
[2] = system: alcohol dehydrogenase from R. erythropolis (RE-ADH, new ADH expr. in E. coli); assay: Relative/specific activity of substrates with the new ADH from R. erythropolis (photometric NADH test); type: biochemical, Rhodococcus erythropolis
Procedure: In this case, as is normal, the measured activity for one compound is set at 100% and the activity/activities of the other compound(s) is determined in relation thereto. From the relative activities when compared with other substrates, it can then be recognised whether such another substrate is accepted to a greater or lesser extent.
A first purification can be achieved by anion exchange chromatography (MonoQ-Material, Pharmacia) (mobile buffer: 50 mM TEA buffer, pH 7.0; elution with a NaCl gradient of 0-1 M).
For the activity test, the cells were harvested (15 min centrifuging at 14000 rpm, 4° C.) and degraded after resuspension with 100 mM KPi buffer, pH 6.0 (1.5 ml of buffer per 1 g of cells). For the purposes of degradation, the suspension was treated with ultrasound (2×30 sec. power 100%, pulse 50), then the cell broth was centrifuged. The supernatant liquid is the soluble crude extract, the sediment is the insoluble fraction.
For a comparison using relative activities, the activity of the two enzymes was given with respect to phenylacetaldehyde=100%.
In this case, the relative activity is given with respect to the activity measured for acetophenone.

[3] = system: aldehyde reductase from Corynebacterium sp.; assay: Activity of substrates with aldehyde reductase from Corynebacterium sp. (Itoh et al.); type: biochemical, Corynebacterium sp. ST-10; settings: Corynebacterium enzyme
Text: When comparing the gene sequence for ADH from R. erythropolis with sequences in the databases, it was shown that RE-ADH has a high degree of homology with an aldehyde reductase from Coyrnebacterium sp. In the publication on aldehyde reductase, a number of biochemical properties of this enzyme are described (Itoh, N., R. Morihama, J. Wang, K. Okada and N. Mizuguchi (1997), Purification and characterisation of phenylacetaldehyde reductase from a styrene-assimilating Corynebacterium strain, ST-10, Appl. Environ. Microbiol. 63: 3783-378). Some of the (aldehyde) substrates described in that publication were therefore also converted using RE-ADH and compared using the relative activities of the reductase. […] Further comparisons of the two enzymes using the published data material are not meaningful because the enzyme from Corynebacterium was tested exclusively with phenylacetaldehyde as substrate, but RE-ADH has hitherto been characterised using p-Cl-acetophenone.
A comparison of RE-ADH with the aldehyde reductase from Corynebacterium sp. with regard to the activity for acetophenone reduction and a few aldehydes. Data on the enzyme from Corynebacterium were taken from the publication by Itoh et al. (see above), data on RE-ADH are our own measurements (homogeneous=very pure homogeneous enzyme). […]

[4] = Thermal stability of the ADH (activity after incubation); type: physicochemical
Procedure: The advantageous aspects and differences mentioned above with regard to improvement in the stability, as compared with previously known alcohol dehydrogenases from R. erythropolis are summarised in Table 5 and in FIG. 4. For better comparison, the relevant enzyme activity measured at 45° C. was set at 100%.
Here, for the very pure new alcohol hydrogenase, high thermal stabilities were produced over a wide temperature range extending up to 65° C. The stability values in this case are […]

[5] = pH optimum for the activity and stability of RE-ADH; type: biochemical; settings: 4° C. and room temperature, 1 and 2 days, pH range 7.5-8.5, tris-HCl buffer 0.1 M
Text: The pH optimum for RE-ADH is at pH 6.0 for the reduction reaction (measured using p-Cl-acetophenone).

[6] = Activity of immobilised RE-ADH (Eupergit, Ni-NTA) with p-Cl-acetophenone, GC; type: biochemical; settings: for activity of the immobilised enzyme: 30° C.
Procedure: Eupergit C® and Eupergit C 250L® were used in parallel batches, each being loaded with partially purified RE-ADH (literature reference relating to Eupergit immobilisation: E. Katchalski-Katzir, D. M. Kraemer, J. Mol. Catal. B: Enzym. 2000, 10, 157). The following was used for the test: • 1.5 mM p-Cl-acetophenone (dissolved in 0.1 M Na formate buffer, 0.05 M KPi buffer, pH 6.0) • 0.5 mM NAD • 30 mg immobilisate • 1 U/ml formate dehydrogenase (FDH)
These test materials were incubated at 30° C., a sample (100 μl) was taken from each mix after 0, 5, 10 and 15 min, this was extracted with 100 μl of chloroform and the chloroform phase was analysed for any phenylethanol formed using gas chromatography. The activity of the immobilised enzyme can be calculated from the kinetics of phenylethanol formation and values of 11.8 U/g support for Eupergit C® and 8 U/g of support for Eupergit C 250L® were obtained. With respect to the amount of enzyme used, this corresponded to coupling yields of 1% (Eupergit ®) and 0.8% (Eupergit C 250L®). • b) Immobilising on Ni-NTA
Recombinant E. coli JM105/pRE-ADH5 cells were broken down in an imidazole-containing buffer (50 mM NaH2PO4; 300 mM NaCl; 10 mM imidazole, pH 8.0) and a crude extract was prepared in the way described previously. For immobilisation, 1 ml of enzyme solution (13 U/ml RE-ADH, crude extract from the culture E. coli JM105pRE-ADH5; 8 mg/ml of protein) was added to 300 mg of Ni-NTA support material (Quiagen) and incubated for 10 min at 0° C. (ice bath). After centrifuging the suspension, 3 U/ml could still be detected as residual activity in the supernatant liquid as non-bonded enzyme. The immobilisate was reacted with p-Cl-acetophenone to detect the bonded activity.
For this purpose, the following were used per 1 ml of total volume:
3 mM p-Cl-acetophenone (substrate; dissolved in 100 mM Na formate, 50 mM Kpi buffer pH 6.0)
1 U formate dehydrogenase
The test batch was incubated in the same way as described above (immobilisation on Eupergit®), samples were taken and these were analysed using gas chromatography. […] Taking into account the fact that this test was performed with 30 mg of immobilisate and that 10 U RE-ADH had bonded to 300 mg of support material, 1 U was thus introduced in the test batch with the 30 mg. Since an activity of 0.21 U was reported, an immobilisation yield of 21% was obtained. The enantiomer purity (ee value) of the alcohol formed with the immobilisate was >99%.

[7] = Specific enzyme activity, standard test with p-Cl-acetophenone and NADH; type: biochemical
Procedure: For elution, a falling ammonium sulfate gradient (1-0 M) was used; the desired enzyme then eluted at almost 0 M ammonium sulfate. […] The desired protein eluted on application of a falling ammonium sulfate gradient (1-0 M) at about 0.1 M ammonium sulfate. […] The supernatant liquid is the soluble crude extract, the sediment is the insoluble fraction. […] For expression, E. coli BL21 (DE3) was used as host. Recombinant cells were multiplied in the medium LBcam at 37° C. At an OD600 of 0.5, expression was induced with 25 μM IPTG, then the cells were multiplied for 12 h at 30° C. The cells were harvested after centrifuging for 15 min at 5000 rpm, the sediment was resuspended in 100 mM Kpi buffer (1.5 ml per 1 g of cells) and broken down using ultrasound.

CCCCCCCC=O [Caprylic aldehyde]
relative activity [1]: 1220%
activity towards caprylic aldehyde as multiple of that towards acetophenone (so in the source) ([2]; RE-ADH): about 5 times
relative activity ([2]; phenylacetaldehyde = 100%): 522%
activity towards caprylic aldehyde as multiple of that with respect to acetophenone (so in the source) [3]: 12 times

B1: RE-ADH: alcohol dehydrogenase (ADH, RE-ADH) from Rhodococcus erythropolis, Seq. ID NO: 2, tetrameric; also with C-terminal His-Tag or immobilised (protein, listed as Rhodococcus erythropolis)
chain: MKAIQYTRIGAEPELTEIPKPEPGPGEVLLEVTAAGVCHSDDFIMSLPEEQYTYGLPLTLGHEGAGKVAAVGEGVEGLDIGTNVVVYGPWGCGNCWHCSQGLENYCSRAQELGINPPGLGAPGALAEFMIVDSPRHLVPIGDLDPVKTVPLTDAGLTPYHAIKRSLPKLRGGSYAVVIGTGGLGHVAIQLLRHLSAATVIALDVSADKLELATKVGAHEVVLSDKDAAENVRKITGSQGAALVLDFVGYQPTIDTAMAVAGVGSDVTIVGIGDGQAHAKVGFFQSPYEASVTVPYWGARNELIELIDLAHAGIFDIAVETFSLDNGAEAYRRLAAGTLSGRAVVVPGL
modifications: optional C-terminal His-tag or immobilisation
notes: ID NO: 2, tetrameric; also with C-terminal His-Tag or immobilised
enzyme activity after incubation ([4]; 10 min at 45° C.): (110 U/ml)
relative enzyme activity after incubation ([4]; 10 min at 45° C.): 95%
enzyme activity after incubation ([4]; 10 min at 50° C.): (110 U/ml)
relative enzyme activity after incubation ([4]; 10 min at 50° C.): 95%
enzyme activity after incubation ([4]; 10 min at 55° C.): (115 U/ml)
relative enzyme activity after incubation ([4]; 10 min at 55° C.): 99%
enzyme activity after incubation ([4]; 10 min at 60° C.): (112 U/ml)
relative enzyme activity after incubation ([4]; 10 min at 60° C.): 97%
enzyme activity after incubation ([4]; 10 min at 65° C.): (116 U/ml)
relative enzyme activity after incubation ([4]; 10 min at 65° C.): 100%
deactivation on storage [5]: no deactivation
enantiomer purity (ee value) of the alcohol formed with the immobilisate ([6]; His-Tag enzyme on Ni-NTA): > 99%
activity of the immobilisate ([6]; His-Tag enzyme on Ni-NTA, 30 mg immobilisate, 3 mM p-Cl-acetophenone): 0.21 U
activity of the immobilised enzyme ([6]; immobilised on Eupergit C 250L): 8 U/g of support
activity of the immobilised enzyme ([6]; immobilised on Eupergit C): 11.8 U/g support
activity in the crude extract ([7]; crude extract from R. erythropolis): about 2.5 U/mg
enzyme activity ([7]; hexa-histidine group at the C-terminus, pRE-ADH5 in E. coli JM105): 7 U/mg
ADH activity in the crude extract ([7]; plasmid pKK223-3, E. coli JM 105, soluble fraction): 6 U/mg
ADH activity in the crude extract ([7]; plasmid pKK223-3, E. coli JM 105, soluble fraction, listed as ADH according to the invention): about 6 U/mg
ADH activity in the crude extract ([7]; vector pKA1, E. coli BL21 (DE3), cell-free crude extract): 70 U/mg
ADH activity in the crude extract ([7]; vector pKA1, E. coli BL21 (DE3), cell-free crude extract, listed as ADH): 70 U/mg
ADH activity in the crude extract ([7]; vector pKA1, E. coli BL21 (DE3), cell-free crude extract, listed as ADH according to the invention): about 70 U/mg
